According to paper doi:10.1101/2025.03.06.641927, “Constitutively active RAS prolongs Cdc42 signalling while attenuating MAPK signalling during fission yeast mating” (bioRxiv, 2025):

T1: His6-Ras1.G17V (1-172), GTP-loaded (fission yeast (Schizosaccharomyces …, UniProt P08647 1-172, G17V))
T1 construct: Loaded with GTP by EDTA-mediated exchange (8 mM GTP, 12 mM EDTA, 37 C, 10 min; stopped with 20.5 mM MgCl2) just before the pull-down; Cloned in vector pLEICS1; also called Ras1.G17V^GTP; source: E. coli BL21 Rosetta, purified (Ni Sepharose 6 Fast Flow), dialysed, loaded with GTP
T1 sequence (looked up): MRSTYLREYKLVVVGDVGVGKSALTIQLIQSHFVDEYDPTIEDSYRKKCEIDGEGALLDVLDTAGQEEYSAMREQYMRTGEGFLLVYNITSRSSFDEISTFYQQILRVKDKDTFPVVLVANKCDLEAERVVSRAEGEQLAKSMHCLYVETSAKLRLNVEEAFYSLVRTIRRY


Legend:
[1] = target: T1, His6-Ras1.G17V (1-172), GTP-loaded; assay: pull-down; GST fusion on glutathione sepharose beads incubated with GTP-loaded Ras1.G17V (1-172) in buffer A (20 mM Tris-Cl pH 7.5, 100 mM NaCl, 5 mM MgCl2, 1 mM beta-mercaptoethanol), 4 C, 30 min; bound fraction on SDS-PAGE, InstantBlue stain; conditions: both partners purified
[2] = target: T1, His6-Ras1.G17V (1-172), GTP-loaded; assay: pull-down; competition: GST-Byr2 (65-180) on glutathione beads incubated with GTP-loaded Ras1.G17V (1-172) with or without Scd1 (760-872) fragment, buffer A, 4 C, 30 min; Ras1.G17V band on SDS-PAGE quantified with Fiji; conditions: both partners purified

Row | Binder | binding result [1] | binding result [2]
1 | GST-Byr2 (65-180) (domain or fragment, UniProt P28829 65-180, looked up, Cloned in vector pLEICS4; also called GST-Byr2-RBD; Byr2-RBD; source: E. coli BL21 Rosetta, purified on glutathione sepharose 4B (kept on the beads); not shown: GST, N-terminal, kept) REFPRPCILRFIACNGQTRAVQSRGDYQKTLAIALKKFSLEDASKFIVCVSQSSRIKLITEEEFKQICFNSSSPERDRLIIVPKEKPCPSFEDLRRSWEIELAQPAALSSQSSLSP | binds | –
2 | GST-Scd1 (760-872) (domain or fragment, UniProt P40995 760-872, looked up, Cloned in vector pLEICS4; also called GST-Scd1-PB1; Scd1-PB1; source: E. coli BL21 Rosetta, purified on glutathione sepharose 4B (kept on the beads); not shown: GST, N-terminal, kept) SSSTSTSLSVRNTTNVKIRLRLHEVSLVLVVAHDITFDELLAKVEHKIKLCGILKQAVPFRVRLKYVDEDGDFITITSDEDVLMAFETCTFELMDPVHNKGMDTVSLHVVVYF | binds | –
3 | Scd1 (760-872) fragment (domain or fragment, UniProt P40995 760-872, looked up, also called Scd1-PB1 (cleaved from GST); not shown: GST, N-terminal, cleaved) SSSTSTSLSVRNTTNVKIRLRLHEVSLVLVVAHDITFDELLAKVEHKIKLCGILKQAVPFRVRLKYVDEDGDFITITSDEDVLMAFETCTFELMDPVHNKGMDTVSLHVVVYF | – | binds
